Assay results as given in the supplement of paper PMC7125110.
± gives the standard error. Fewer inactive variants are shown than the library holds.

B1: glmS ribozyme (parent)
chain: AUAAAAGCGCCAGAACUACAGAAAUGUAGUUGACGAGGAGGAGGUUUAUCGAAUUUUCGGCGGAUGCCUCCAAA

How the values were obtained:
Details in all cases: with glucosamine-6-phosphate
[1] = variants of: B1; test: self-cleavage kobs at 40 uM GlcN6P; higher = faster cleavage; RNA array
Outline: (§1)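 Weighted Michaelis–Menten fits across concentrations supplied kcat and KM, based on kobs from one- or two-exponential decay fits to normalised per-tile medians. The data came from barcoded ribozyme variants transcribed in situ by E. coli RNA polymerase on sequenced MiSeq chips and tracked at 37 °C by a hybridised Cy3 probe. Glucosamine-6-phosphate (40 μM to 10 mM) in HEPES/KCl/Mg(OAc)2 buffer was flowed in.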

[2] = variants of: B1; test: self-cleavage kobs at 640 uM GlcN6P; higher = faster cleavage; RNA array
Outline: as §1

[3] = variants of: B1; test: self-cleavage kobs at 2500 uM GlcN6P; higher = faster cleavage; RNA array
Outline: as §1

[4] = variants of: B1; test: self-cleavage kobs at 10000 uM GlcN6P; higher = faster cleavage; RNA array
Outline: as §1

[5] = variants of: B1; test: self-cleavage kobs at 160 uM GlcN6P; higher = faster cleavage; RNA array
Outline: as §1

Row | Variant | self-cleavage kobs at 40 uM GlcN6P [1] | self-cleavage kobs at 640 uM GlcN6P [2] | self-cleavage kobs at 2500 uM GlcN6P [3] | self-cleavage kobs at 10000 uM GlcN6P [4] | self-cleavage kobs at 160 uM GlcN6P [5]
1 | C10G A33U G43U G63C C71G | < 1e-05 s⁻¹ | – | – | – | –
2 | G9A C10A G32A | < 1e-05 s⁻¹ | – | – | – | –
3 | C10U G43U C70A | < 1e-05 s⁻¹ | – | – | – | –
4 | C10A A14C U45C C68U | < 1e-05 s⁻¹ | < 1e-05 s⁻¹ | < 1e-05 s⁻¹ | < 1e-05 s⁻¹ | –
5 | G9C C11U U31C A36G G38A C50G U69G C70G | 0.00075 ± 0.00022 s⁻¹ | – | – | 0.000818 ± 0.00021 s⁻¹ | –
6 | C10G G40C C70G | < 1e-05 s⁻¹ | < 1e-05 s⁻¹ | < 1e-05 s⁻¹ | < 1e-05 s⁻¹ | < 1e-05 s⁻¹
7 | G9U A64C | < 1e-05 s⁻¹ | < 1e-05 s⁻¹ | – | < 1e-05 s⁻¹ | < 1e-05 s⁻¹
8 | C10G A14C | < 1e-05 s⁻¹ | – | – | < 1e-05 s⁻¹ | –
9 | C8U U30A G62A U65A C71U | < 1e-05 s⁻¹ | – | – | – | –
10 | C10A G38A A53U C68A | < 1e-05 s⁻¹ | – | – | – | –
11 | G9C A42G | < 1e-05 s⁻¹ | – | < 1e-05 s⁻¹ | < 1e-05 s⁻¹ | < 1e-05 s⁻¹
12 | G9C U47C A53G G62A C68G | < 1e-05 s⁻¹ | – | – | < 1e-05 s⁻¹ | –
13 | G9U C16G C71U | < 1e-05 s⁻¹ | – | < 1e-05 s⁻¹ | – | –
14 | C10A G43C | < 1e-05 s⁻¹ | < 1e-05 s⁻¹ | – | < 1e-05 s⁻¹ | < 1e-05 s⁻¹
15 | G9A A52U | < 1e-05 s⁻¹ | < 1e-05 s⁻¹ | < 1e-05 s⁻¹ | < 1e-05 s⁻¹ | < 1e-05 s⁻¹
16 | G9A G62C | < 1e-05 s⁻¹ | < 1e-05 s⁻¹ | – | < 1e-05 s⁻¹ | –
17 | G9U G41C | < 1e-05 s⁻¹ | – | < 1e-05 s⁻¹ | – | < 1e-05 s⁻¹
18 | C10U G60U C67U | < 1e-05 s⁻¹ | < 1e-05 s⁻¹ | – | < 1e-05 s⁻¹ | < 1e-05 s⁻¹
19 | C11A A12C G44C U49A | < 1e-05 s⁻¹ | < 1e-05 s⁻¹ | < 1e-05 s⁻¹ | < 1e-05 s⁻¹ | < 1e-05 s⁻¹
20 | C8U U45G | < 1e-05 s⁻¹ | < 1e-05 s⁻¹ | < 1e-05 s⁻¹ | – | < 1e-05 s⁻¹
21 | G9U A39U C68U | < 1e-05 s⁻¹ | – | – | – | –
22 | G9A U30C U31C C50A | < 1e-05 s⁻¹ | < 1e-05 s⁻¹ | – | < 1e-05 s⁻¹ | < 1e-05 s⁻¹
23 | C10A U30G A39U C67A | < 1e-05 s⁻¹ | – | – | – | –
